This is an account of results in US20260001928A1 (CORTERIA PHARMACEUTICALS, priority 2022, published 2026).

One experiment addresses T1, CRF1R receptor (UniProt P34998 24-415, limits assumed).
T1 sequence (looked up): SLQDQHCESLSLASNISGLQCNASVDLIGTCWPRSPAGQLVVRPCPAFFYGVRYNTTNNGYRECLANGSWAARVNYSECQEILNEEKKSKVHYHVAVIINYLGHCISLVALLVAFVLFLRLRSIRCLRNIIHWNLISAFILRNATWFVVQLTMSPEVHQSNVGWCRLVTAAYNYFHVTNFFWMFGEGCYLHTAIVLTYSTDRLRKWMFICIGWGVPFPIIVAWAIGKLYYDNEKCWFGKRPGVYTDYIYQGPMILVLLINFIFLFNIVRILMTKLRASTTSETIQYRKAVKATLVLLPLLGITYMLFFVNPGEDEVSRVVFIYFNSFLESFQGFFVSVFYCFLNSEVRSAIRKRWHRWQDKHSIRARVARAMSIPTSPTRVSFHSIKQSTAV
Nature of the experiment: cell-based or functional assay.

Experiment [1] addresses human corticotropin-releasing factor 2a (CRF2a receptor) (human), Q13324. Nature of the experiment: cell-based or functional assay.

*1 amine or outer side, *2 acyl side, *3 side chain or, on linkers, in order; H or OH if unused. Where no end group is shown, it is not given here. Side-chain parts run from the residue outwards. [ ]: non-standard residue; d: D form. The star is where a group is joined. C18 diacid = O=C(O)CCCCCCCCCCCCCCCCC(=O)*; C16 diacid = O=C(O)CCCCCCCCCCCCCCC(=O)*; γGlu = O=C(O)[C@H](CCC(=O)[*:2])N[*:1]; NMeI = CC[C@H](C)[C@H](NC)C(=O)O; Pentanoyl = CCCCC(=O)*; AEEA = NCCOCCOCC(=O)O; Aib = CC(C)(N)C(=O)O Where only a bound is given, the exact number is not on record here.

Chain of human corticotropin-releasing factor 2a (CRF2a receptor) (human), Q13324 (Q13324 20-411): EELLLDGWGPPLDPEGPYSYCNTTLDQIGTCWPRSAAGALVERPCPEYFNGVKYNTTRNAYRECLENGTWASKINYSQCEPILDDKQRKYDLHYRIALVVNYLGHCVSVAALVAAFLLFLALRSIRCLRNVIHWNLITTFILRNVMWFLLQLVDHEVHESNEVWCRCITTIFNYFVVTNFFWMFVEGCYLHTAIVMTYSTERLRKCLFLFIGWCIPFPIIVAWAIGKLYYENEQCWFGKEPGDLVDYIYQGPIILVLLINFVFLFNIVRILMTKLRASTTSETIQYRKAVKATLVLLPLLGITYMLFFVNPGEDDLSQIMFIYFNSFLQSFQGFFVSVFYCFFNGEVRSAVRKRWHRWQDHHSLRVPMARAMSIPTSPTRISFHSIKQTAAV

B1: SEQ ID NO 30 (peptide)
peptide: Ac-IVLSLD[dV]PIKLK([AEEA-AEEA-γGlu-γGlu-C18 diacid])QILLKQERQKKQREQAEKN[Aib]QILEQV-NH2
SMILES: CC[C@H](C)[C@H](NC(C)=O)C(=O)N[C@H](C(=O)N[C@@H](CC(C)C)C(=O)N[C@@H](CO)C(=O)N[C@@H](CC(C)C)C(=O)N[C@@H](CC(=O)O)C(=O)N[C@@H](C(=O)N1CCC[C@H]1C(=O)N[C@H](C(=O)N[C@@H](CCCCN)C(=O)N[C@@H](CC(C)C)C(=O)N[C@@H](CCCCNC(=O)COCCOCCNC(=O)COCCOCCNC(=O)CC[C@H](NC(=O)CC[C@H](NC(=O)CCCCCCCCCCCCCCCCC(=O)O)C(=O)O)C(=O)O)C(=O)N[C@@H](CCC(N)=O)C(=O)N[C@H](C(=O)N[C@@H](CC(C)C)C(=O)N[C@@H](CC(C)C)C(=O)N[C@@H](CCCCN)C(=O)N[C@@H](CCC(N)=O)C(=O)N[C@@H](CCC(=O)O)C(=O)N[C@@H](CCCNC(=N)N)C(=O)N[C@@H](CCC(N)=O)C(=O)N[C@@H](CCCCN)C(=O)N[C@@H](CCCCN)C(=O)N[C@@H](CCC(N)=O)C(=O)N[C@@H](CCCNC(=N)N)C(=O)N[C@@H](CCC(=O)O)C(=O)N[C@@H](CCC(N)=O)C(=O)N[C@@H](C)C(=O)N[C@@H](CCC(=O)O)C(=O)N[C@@H](CCCCN)C(=O)N[C@@H](CC(N)=O)C(=O)NC(C)(C)C(=O)N[C@@H](CCC(N)=O)C(=O)N[C@H](C(=O)N[C@@H](CC(C)C)C(=O)N[C@@H](CCC(=O)O)C(=O)N[C@@H](CCC(N)=O)C(=O)N[C@H](C(N)=O)C(C)C)[C@@H](C)CC)[C@@H](C)CC)[C@@H](C)CC)C(C)C)C(C)C
With B1, in the experiment with CRF1R receptor, the “EC50” value was above 250 nM and the “Emax (% I)” value is 15%. The EC50 [nM] (cAMP) in experiment [1] was determined as 0.29 nM.

B2: SEQ ID NO 122 (peptide)
peptide: Pentanoyl-VLSLD[dV]PIKLK([AEEA-AEEA-γGlu-C18 diacid])KILLEQEKQKKQREQAETNAQILAQV-NH2
SMILES: CCCCC(=O)N[C@H](C(=O)N[C@@H](CC(C)C)C(=O)N[C@@H](CO)C(=O)N[C@@H](CC(C)C)C(=O)N[C@@H](CC(=O)O)C(=O)N[C@@H](C(=O)N1CCC[C@H]1C(=O)N[C@H](C(=O)N[C@@H](CCCCN)C(=O)N[C@@H](CC(C)C)C(=O)N[C@@H](CCCCNC(=O)COCCOCCNC(=O)COCCOCCNC(=O)CC[C@H](NC(=O)CCCCCCCCCCCCCCCCC(=O)O)C(=O)O)C(=O)N[C@@H](CCCCN)C(=O)N[C@H](C(=O)N[C@@H](CC(C)C)C(=O)N[C@@H](CC(C)C)C(=O)N[C@@H](CCC(=O)O)C(=O)N[C@@H](CCC(N)=O)C(=O)N[C@@H](CCC(=O)O)C(=O)N[C@@H](CCCCN)C(=O)N[C@@H](CCC(N)=O)C(=O)N[C@@H](CCCCN)C(=O)N[C@@H](CCCCN)C(=O)N[C@@H](CCC(N)=O)C(=O)N[C@@H](CCCNC(=N)N)C(=O)N[C@@H](CCC(=O)O)C(=O)N[C@@H](CCC(N)=O)C(=O)N[C@@H](C)C(=O)N[C@@H](CCC(=O)O)C(=O)N[C@H](C(=O)N[C@@H](CC(N)=O)C(=O)N[C@@H](C)C(=O)N[C@@H](CCC(N)=O)C(=O)N[C@H](C(=O)N[C@@H](CC(C)C)C(=O)N[C@@H](C)C(=O)N[C@@H](CCC(N)=O)C(=O)N[C@H](C(N)=O)C(C)C)[C@@H](C)CC)[C@@H](C)O)[C@@H](C)CC)[C@@H](C)CC)C(C)C)C(C)C
In the case of B2, in the experiment with CRF1R receptor, the “Emax (% I)” value was 5%. In experiment [1], this molecule yielded an EC50 [nM] (cAMP) of 0.67 nM.

B3: SEQ ID NO 31 (peptide)
peptide: [NMeI]VLSLD[dV]PIKLK([AEEA-AEEA-γGlu-γGlu-C18 diacid])QILLKQERQKKQREQAEKN[Aib]QILEQV-NH2
modifications: N-terminus assumed
SMILES: CC[C@H](C)[C@H](NC)C(=O)N[C@H](C(=O)N[C@@H](CC(C)C)C(=O)N[C@@H](CO)C(=O)N[C@@H](CC(C)C)C(=O)N[C@@H](CC(=O)O)C(=O)N[C@@H](C(=O)N1CCC[C@H]1C(=O)N[C@H](C(=O)N[C@@H](CCCCN)C(=O)N[C@@H](CC(C)C)C(=O)N[C@@H](CCCCNC(=O)COCCOCCNC(=O)COCCOCCNC(=O)CC[C@H](NC(=O)CC[C@H](NC(=O)CCCCCCCCCCCCCCCCC(=O)O)C(=O)O)C(=O)O)C(=O)N[C@@H](CCC(N)=O)C(=O)N[C@H](C(=O)N[C@@H](CC(C)C)C(=O)N[C@@H](CC(C)C)C(=O)N[C@@H](CCCCN)C(=O)N[C@@H](CCC(N)=O)C(=O)N[C@@H](CCC(=O)O)C(=O)N[C@@H](CCCNC(=N)N)C(=O)N[C@@H](CCC(N)=O)C(=O)N[C@@H](CCCCN)C(=O)N[C@@H](CCCCN)C(=O)N[C@@H](CCC(N)=O)C(=O)N[C@@H](CCCNC(=N)N)C(=O)N[C@@H](CCC(=O)O)C(=O)N[C@@H](CCC(N)=O)C(=O)N[C@@H](C)C(=O)N[C@@H](CCC(=O)O)C(=O)N[C@@H](CCCCN)C(=O)N[C@@H](CC(N)=O)C(=O)NC(C)(C)C(=O)N[C@@H](CCC(N)=O)C(=O)N[C@H](C(=O)N[C@@H](CC(C)C)C(=O)N[C@@H](CCC(=O)O)C(=O)N[C@@H](CCC(N)=O)C(=O)N[C@H](C(N)=O)C(C)C)[C@@H](C)CC)[C@@H](C)CC)[C@@H](C)CC)C(C)C)C(C)C
In the case of B3, in the experiment with CRF1R receptor, the “EC50” value was above 250 nM and the “Emax (% I)” value was 14%. Moreover, the EC50 [nM] (cAMP) in experiment [1] was found to be 0.23 nM.

B4: SEQ ID NO 42 (peptide)
peptide: Ac-IVLSLD[dV]PIKLK([AEEA-AEEA-γGlu-C16 diacid])KILLEQEKQKKQREQAETN[Aib]QILAQV-NH2
SMILES: CC[C@H](C)[C@H](NC(C)=O)C(=O)N[C@H](C(=O)N[C@@H](CC(C)C)C(=O)N[C@@H](CO)C(=O)N[C@@H](CC(C)C)C(=O)N[C@@H](CC(=O)O)C(=O)N[C@@H](C(=O)N1CCC[C@H]1C(=O)N[C@H](C(=O)N[C@@H](CCCCN)C(=O)N[C@@H](CC(C)C)C(=O)N[C@@H](CCCCNC(=O)COCCOCCNC(=O)COCCOCCNC(=O)CC[C@H](NC(=O)CCCCCCCCCCCCCCC(=O)O)C(=O)O)C(=O)N[C@@H](CCCCN)C(=O)N[C@H](C(=O)N[C@@H](CC(C)C)C(=O)N[C@@H](CC(C)C)C(=O)N[C@@H](CCC(=O)O)C(=O)N[C@@H](CCC(N)=O)C(=O)N[C@@H](CCC(=O)O)C(=O)N[C@@H](CCCCN)C(=O)N[C@@H](CCC(N)=O)C(=O)N[C@@H](CCCCN)C(=O)N[C@@H](CCCCN)C(=O)N[C@@H](CCC(N)=O)C(=O)N[C@@H](CCCNC(=N)N)C(=O)N[C@@H](CCC(=O)O)C(=O)N[C@@H](CCC(N)=O)C(=O)N[C@@H](C)C(=O)N[C@@H](CCC(=O)O)C(=O)N[C@H](C(=O)N[C@@H](CC(N)=O)C(=O)NC(C)(C)C(=O)N[C@@H](CCC(N)=O)C(=O)N[C@H](C(=O)N[C@@H](CC(C)C)C(=O)N[C@@H](C)C(=O)N[C@@H](CCC(N)=O)C(=O)N[C@H](C(N)=O)C(C)C)[C@@H](C)CC)[C@@H](C)O)[C@@H](C)CC)[C@@H](C)CC)C(C)C)C(C)C
Regarding B4, the “Emax (% I)” value in the experiment with CRF1R receptor came out at 1%. Also, the EC50 [nM] (cAMP) in experiment [1] was found to be 3.08 nM.

B5: SEQ ID NO 32 (peptide)
peptide: Pentanoyl-VLSLD[dV]PIKLK([AEEA-AEEA-γGlu-γGlu-C18 diacid])QILLKQERQKKQREQAEKN[Aib]QILEQV-NH2
SMILES: CCCCC(=O)N[C@H](C(=O)N[C@@H](CC(C)C)C(=O)N[C@@H](CO)C(=O)N[C@@H](CC(C)C)C(=O)N[C@@H](CC(=O)O)C(=O)N[C@@H](C(=O)N1CCC[C@H]1C(=O)N[C@H](C(=O)N[C@@H](CCCCN)C(=O)N[C@@H](CC(C)C)C(=O)N[C@@H](CCCCNC(=O)COCCOCCNC(=O)COCCOCCNC(=O)CC[C@H](NC(=O)CC[C@H](NC(=O)CCCCCCCCCCCCCCCCC(=O)O)C(=O)O)C(=O)O)C(=O)N[C@@H](CCC(N)=O)C(=O)N[C@H](C(=O)N[C@@H](CC(C)C)C(=O)N[C@@H](CC(C)C)C(=O)N[C@@H](CCCCN)C(=O)N[C@@H](CCC(N)=O)C(=O)N[C@@H](CCC(=O)O)C(=O)N[C@@H](CCCNC(=N)N)C(=O)N[C@@H](CCC(N)=O)C(=O)N[C@@H](CCCCN)C(=O)N[C@@H](CCCCN)C(=O)N[C@@H](CCC(N)=O)C(=O)N[C@@H](CCCNC(=N)N)C(=O)N[C@@H](CCC(=O)O)C(=O)N[C@@H](CCC(N)=O)C(=O)N[C@@H](C)C(=O)N[C@@H](CCC(=O)O)C(=O)N[C@@H](CCCCN)C(=O)N[C@@H](CC(N)=O)C(=O)NC(C)(C)C(=O)N[C@@H](CCC(N)=O)C(=O)N[C@H](C(=O)N[C@@H](CC(C)C)C(=O)N[C@@H](CCC(=O)O)C(=O)N[C@@H](CCC(N)=O)C(=O)N[C@H](C(N)=O)C(C)C)[C@@H](C)CC)[C@@H](C)CC)[C@@H](C)CC)C(C)C)C(C)C
Turning to B5, in the experiment with CRF1R receptor, the “EC50” value is above 250 nM and the “Emax (% I)” value is 5%. In addition, in experiment [1], the EC50 [nM] (cAMP) was 1.04 nM.
